This note sets out measurements from paper PMC11602552 (The Journal of Experimental Medicine, 2024).

This assay concerns the target wild type eIF6 (eIF6^WT), purified (UniProt O55135 1-245). Description: SPR. Background: Surface plasmon resonance follows binding to a sensor surface in real time, without labels.

B1: Nsun2, purified (enzyme)
chain: MGRRARGRRFQQPPQPEGEEDASDGGRKRGQAGWEGGYPEIVKENKLFEHYYQELKIVPEGEWDQFMESLREPLPATLRITGYKSHAKEILHCLKNKYFKELEDLEVDGQKVEVPQPLSWYPEELAWHTNLSRKILRKSPLLAKFHQFLVSETESGNISRQEAVSMIPPLLLNVEPHHKILDMCAAPGSKTTQLIEMLHADMSVPFPEGFVIANDVDNKRCYLLVHQAKRLSSPCIMVVNHDASSIPRLTVDVDGRKEILFYDRILCDVPCSGDGTMRKNIDVWKKWTTLNSLQLHGLQLRIATRGAEQLAEGGRMVYSTCSLNPVEDEAVIAALLEKSEGALELADVSAELPGLKWMPGVSQWKVMTRDGQWFADWHEVPQGRHTQIRPTMFPPTDLEKLQAMHLERCLRILPHHQNTGGFFVAVLVKKAPMPWNKRQPKVQNKSAEAREPRVSSHVAATEGNPSDQSELESQMITGAGDSETAHNTENTESNEKKDGVCGPPPSKKMKLFGFKEDPFVFIPEDDPLFPPIEKFYALDPSFPRMNLLTRTTEGKKRQLYMVSKELRNVLLNNSEKMKVINTGIKVWCRNNSGEEFDCAFRLAQEGIYTLYPFINSRIITVSMEDVKTLLTQENPFFRKLSSEAYSQVKDLAKGSVVLKYEPDSANPDTLQCPIVLCGWRGKASIRTFVPKNERLHYLRMMGLEVLGEKKKEGVILTNENAASPEQPGDEDAKQTAQDPCVPDSVPGCDAAAAEPSR
On to B1, for which the equilibrium dissociation constant (Kd) (as a rule, the constant that tells how readily two partners part at equilibrium) is 1470 nM.
